From US20030129189A1, “Tumor necrosis factor-gamma” (priority 1994, published 2003)
Where two headings read alike, the source gives them in different places. Each block holds one molecule with its values, some of them ahead of it.

Legend:
DR3 = test: FACS binding of FLAG-tagged soluble TL1β to cells transfected with DR3; parameters: species or system human
Experimental: A FLAG-tagged soluble form of the TL1 (aa 72-251) protein was tested for binding of cells transiently transfected with different members of the TNFR family, including TNFR2, LTβR, 4-1BB, CD27, CD30, BCMA, DR3, DR4, DR5, DR6, DcR1, DcR2, RANK, HveA, and AITR. […] The small shift (˜30%) seen when full length DR3 was used is likely due to the presence of low DR3-expressing cells while DR3 overexpressed cells undergone apoptosis.
(§1) One million cells, in 0.1 ml of FACS buffer (PBS, 0.1% BSA, 0.1% NaN3), were incubated with 0.1-1 microgram of protein or antibody at RT for 15 min. The cells were washed with 3 ml of FACS buffer, reacted with biotinylated primary antibody, and stained with PE-conjugated secondary antibody at RT for 15 min. Cells were then washed again, resuspended in 0.5 microgram/ml of propidium iodide, and live cells were gated and analyzed on a FACScan using the CellQuest software (BD Biosciences).

TNF-gamma-beta [1] = molecular target: T1, TNF-gamma-beta (Homo sapiens, UniProt O95150); test: FACS binding of receptor-Fc proteins to cells expressing full length TNF-gamma-beta
T1 construct: expressed in transfected cells
T1 sequence (O95150 1-251): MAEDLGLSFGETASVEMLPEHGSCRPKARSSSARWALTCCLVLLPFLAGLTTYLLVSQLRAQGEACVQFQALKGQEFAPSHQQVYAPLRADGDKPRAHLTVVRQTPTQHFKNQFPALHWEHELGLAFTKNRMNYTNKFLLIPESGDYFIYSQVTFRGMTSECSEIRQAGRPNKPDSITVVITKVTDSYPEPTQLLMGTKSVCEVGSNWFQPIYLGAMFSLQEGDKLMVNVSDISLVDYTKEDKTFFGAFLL
Experimental: These cells were used to screen the Fc-fusion form of the extracellular domain of TNFR family members, including TNFR1, Fas, HveA, DR3, DR4, DR5, DR6, DcR1, DcR2, TR6, OPG, RANK, AITR, TAC1, CD40, and OX40. […] TR6 has been previously described as a decoy receptor (Pitti et al., Nature 396:699-703 (1998); Yu et al., J. Biol. Chem. 274:13733-6 (1999)) capable of competing with Fas and HveA for binding of FasL and LIGHT, respectively.
Cells resistant to 0.5 mg/ml Genticin (Invitrogen) were selected and expanded. Expression of TNF-gamma-beta mRNA was confirmed by quantitative RT-PCR analysis and surface expression of TNF-gamma-beta protein confirmed by FACS analyses using TNF-gamma-beta monoclonal antibodies.
as §1

TNF-gamma-beta [2] = molecular target: T2, TNF-gamma-beta (Homo sapiens, UniProt O95150); test: Inhibition of TNF-gamma-beta activation of NF-κB in 293T cells; type: cell-based
T2 construct: made in house; host or cells: E. coli (untagged) or 293T (FLAG-tagged)
T2 sequence (O95150 72-251): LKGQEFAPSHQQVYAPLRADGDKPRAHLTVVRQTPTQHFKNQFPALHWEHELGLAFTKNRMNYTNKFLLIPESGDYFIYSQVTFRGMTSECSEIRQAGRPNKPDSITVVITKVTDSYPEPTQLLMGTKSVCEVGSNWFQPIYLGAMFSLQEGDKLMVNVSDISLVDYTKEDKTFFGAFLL
Experimental: To avoid spontaneous apoptosis or NF-κB activation accompanied with DR3 overexpression, a limited amount of DR3-expression DNA that by itself minimally activated these pathways was used.
293T cells were transiently transfected using LipofectAMINE and PLUS reagents according to the manufacturer's instruction (Invitrogen). For reporter assays, 293T cells, at 5×10^5 cells/well, were seeded in 6-well plates and transfected with a total of 1 microgram of DNA. pC4 DNA was used as filler DNA. Conditioned supernatant was collected 24 hr post-transfection and assayed for secreted alkaline phosphatase (SEAP) activity using the Phospha-Light™ chemiluminescent reporter gene assay system (Tropix). pCMV-lacZ was used as internal control for transfection efficiency normalization.

TNF-gamma-beta [3] = molecular target: T3, TNF-gamma-beta (Homo sapiens, UniProt O95150); test: Coimmunoprecipitation of TNF-gamma-beta by TNFR-Fc proteins; type: binding
T3 construct: made in house; host or cells: 293T cells, transient transfection
T3 sequence (O95150 72-251 limits assumed): T2 sequence (O95150 72-251)
Description: The beads were then precipitated and washed extensively with PBST buffer (PBS, 0.5% Triton X-100) before boiled in SDS-sample buffer. Proteins were resolved on 4-20% Tris-Glycine gels (NOVEX), transferred to nitrocellulose membranes, and blotted with anti-Flag M2 monoclonal antibody (1 microgram/ml, Sigma) andhorseradish peroxidase (HRP)-conjugated goat anti-mouse IgG antibody (0.5 microgram/ml).

TNF-gamma-beta [4] = molecular target: T3, TNF-gamma-beta; test: Neutralization of TNF-gamma-beta induced SEAP production in TF-1/SRE reporter cells; type: cell-based; conditions: TNF-gamma-beta at 200 ng/mL, TF1/SRE reporter cells
Experimental: (§2) Briefly, a poly-D-lysine coated 96-well plate is seeded with TF-1/SRE-SEAP cells (in RPMI+0.2% Fetal bovine serum) at 75,000 cells per well. […] Again cells were incubated overnight. After overnight incubation, conditioned media were collected and SEAP activity was determined using the SEAP Reporter Gene Assay available from Roche Molecular Biochemicals (Indianapolis, Ind.) according to the manufacturer's directions. Briefly, Conditioned media were diluted 1:4 into dilution buffer. Samples were incubated at 65C for 30 minutes to eliminate contaminating AP activity usually present in culture medium. 25 microliters of the heat-inactivated samples were mixed with equal volume of inactivation buffer (containing a mixture of differential alkaline phosphatase inhibitors). Following a 5-minute incubation at room temperature, 50 uL of alkaline phosphatase substrate (CSPD) was added to each well. Chemiluminescence signal was read 10-15 minutes later using a luminometer.
These solutions were then incubated for 1 hour at room temperature. […] After the overnight incubation, the SEAP assay was performed as described above.
(§3) The premyeloid cell line TF-1 was stably transfected with SRE/SEAP (Signal Response Element/Secreted Alkaline Phosphatase) reporter plasmid that responds to the SRE signal transduction pathway.

TNF-gamma-beta [5] = molecular target: T2, TNF-gamma-beta; test: Inhibition of TNF-gamma-beta induced caspase activation in TF-1 cells; type: cell-based; conditions: presence of cycloheximide
Experimental: Briefly, cells growing in microtiter plates are induced to undergo apoptosis, causing an activation of caspase activities. Equal volume of a caspase substrate (Asp-Glu-Val-Asp-Rhodamine 110, or DEVD-R110) solution is then added and incubated for at least 1 hour. During this incubation, cells are being lysed and free R110 is released from the substrate. The level of free R110 is determined fluorimetrically, using a fluorescence reader with excitation filter 470-500 nm and emission filter 500-560 nm.
A black 96-well plate with a clear bottom is seeded with 75,000 TF-1 cells in RPMI containing 1% fetal bovine serum and micrograms/milliliter cyclohexamide. […] Following the manufacturer's directions, an equal volume of 1×substrate solution containing 50 micromolar DEVD-R110 diluted in incubation buffer is added to each well. The 96-well plates are then incubated for 2 hours after which the plate is read in a fluorescence reader with an excitation filter at 485 nm and an emission filter at 535 nm.
These solutions were then incubated for 1 hour at room temperature.
The reagents were incubated for 1 hour at RT to allow the formation of protein-TNF-gamma-beta complexes and then added to the cells. Caspase activity was measured as described above.

TF-1/SRE-SEAP cells = test: SEAP assay: TNF-gamma-beta induced SEAP in TF-1/SRE-SEAP reporter cells; type: cell-based; conditions: without TNF-gamma-beta
Experimental: as §2, §3

TNF-gamma-beta [6] = molecular target: T2, TNF-gamma-beta; test: Inhibition of TNF-gamma-beta-mediated IFNγ secretion from T cells; type: cell-based; conditions: costimulated T cells
Experimental: The extent of the increase in IL-2 receptor expression is consistent with the moderate increase in IL-2 responsiveness compared with IL-2 itself.
1×10^5 cells/ml of purified T cells were seeded in a 24-well tissue culture plate that had been coated with anti-CD3 (0.3 microgram/ml) and anti-CD28 (5.0 microgram/ml) overnight at 4° C. […] ELISA assay for IFNγ, GM-CSF, IL-2 IL-4, IL-10 and TNFα were performed using kits purchased from R & D Systems. Recombinant human IL-2 (5 ng/ml) was used as a positive control. All samples were tested in duplicate and results were expressed as an average of duplicate samples plus or minus error.

primary T cells = test: Caspase assay in PHA-activated primary T cells; type: cell-based, human; conditions: presence or absence of cycloheximide
Experimental: Overexpression of DR3 in cell lines induces capase activation (Chinnaiyan et al., Science 274:990-2 (1996); Kitson et al., Nature 384:372-5 (1996); Marsters et al., Curr. Biol. 6:1669-76 (1996); Bodmer et al., Immunity 6:79-88 (1997)). We tested whether TL1β could induce caspase activation in primary T cells.
TF-1 cells or PHA-activated primary T cells were seeded at 75,000 cells/well in a black 96-well plate with clear bottom (Becton Dickinson) in RPMI Medium containing 1% fetal bovine serum (Biowhittaker). […] Caspase activity was measured directly in the wells by adding equal volume of a lysis buffer containing 25 μM DEVD-rodamine 110 (Roche Molecular Biochemicals), and allowed the reaction to proceed at 37C for 1 to 2 hours. Release of rodarmine 110 was monitored with a Wallac Victor2 fluorescence plate reader with excitation filter 485 nm and emission filter 535 nm.

Molecule: FLAG-TL1β: FLAG-tagged soluble form of the TL1 (aa 72-251) protein
binding to cells expressing full length or DD-deleted DR3 (DR3): consisitently detected

binding to cells expressing TNF-gamma-beta (FACS) (TNF-gamma-beta [1]; listed as TR6-Fc): bound efficiently
inhibition of TNF-gamma-beta activation of NF-κB (TNF-gamma-beta [2]): able to inhibit
inhibition of TNF-gamma-beta activation of NF-κB (TNF-gamma-beta [2]; listed as TR6-Fc): specifically inhibited
inhibition of TNF-gamma-beta-mediated IFNγ secretion (TNF-gamma-beta [6]): able to inhibit
B1: TR6.Fc: full length TR6 (aa 1-300) fused to the Fc domain of human IgG1 (protein)
chain: VAETPTYPWRDAETGERLVCAQCPPGTFVQRPCRRDSPTTCGPCPPRHYTQFWNYLERCRYCNVLCGEREEEARACHATHNRACRCRTGFFAHAGFCLEHASCPPGAGVIAPGTPSQNTQCQPCPPGTFSASSSSSEQCQPHRNCTALGLALNVPGSSSHDTLCTSCTGFPLSTRVPGAEECERAVIDFVAFQDISIKRLQRLLQALEAPEGWGPTPRAGRAALQLKLRRRLTELLGAQDGALLVRLLQALRVARMPGLERSVRERFLPVH
modifications: left off: a dimerising Fc or GST
notes: full length TR6 (aa 1-300) fused to the Fc domain of human IgG1
binding to cells expressing TNF-gamma-beta (FACS) (TNF-gamma-beta [1]): specifically bind cells transfected with TNF-gamma-beta
immunoprecipitation of TNF-gamma-beta (TNF-gamma-beta [3]): can be used to immunoprecipitate TNF-gamma-beta
immunoprecipitation of TNF-gamma-beta (TNF-gamma-beta [3]; listed as TR6-Fc): specifically interacted with FLAG-TNF-gamma-beta
neutralization of TNF-gamma-beta SEAP activity by receptor-Fc (TNF-gamma-beta [4]): can be neutralized by TR6.fc fusion protein in a dose dependent manner
inhibition of TNF-gamma-beta induced caspase activation (TNF-gamma-beta [5]): inhibited by either DR3-Fc or TR6-Fc protein
SEAP activity of the Fc protein by itself (TF-1/SRE-SEAP cells): showed no activity

B2: FasL: Fas ligand, positive control for caspase activation in T cells (protein, UniProt P48023 130-281, looked up)
Tumor necrosis factor ligand …: QIGHPSPPPEKKELRKVAHLTGKSNSRSMPLEWEDTYGIVLLSGVKYKKGGLVINETGLYFVYSKVYFRGQSCNNLPLSHKVYMRNSKYPQDLVMMEGKMMSYCTTGQMWARSSYLGAVFNLTSADHLYVNVSELSLVNFEESQTFFGLYKL
caspase activity in PHA-activated T cells (primary T cells): readily measured
